Test results taken from publication PMC10897489 (2024).

Target: reported 23mer NSP3 peptide from alphaviruses
Experiment: ITC

B1: FXR1 1–122 (domain or fragment)
chain: not shown
Kd: 19.4 µM
